These results are taken from US8691189B2, “Method of colorectal cancer detection by using radiolabeled anti-GRP78 peptide” (Institute of Nuclear Energy Research, Atomic Energy Council, priority 2011, dated 2014).

This test concerns the target T1, GRP78 (Mus musculus, UniProt P20029).
T1 construct: endogenous in cells; CT26 named for the mouse model
The test can be described thus: Immunofluorescence cell staining of colorectal cancer cells. The class given is cell-based. The settings on record: FITC-labeled, 1:50, 4° C. overnight, FIG. 3. As to the method:
(A) Immunofluorescence cell staining 4: • (A1) Cell culturing 40: • I. A few colorectal cancer cells are cultured in a RPMI1640 of 10% fetal bovine serum (FBS) (containing 2 mM glutamine, penicillin (100 U/ml) and streptomycin ([…])). • II. The cells are put in a culture chamber having 5% CO2 at 37° C. • III. After being fully grown, the cells adhered on culture dishes are reacted with 0.05% Trypsin and are washed down. • IV. The cells washed down are further washed with a Hank's balanced salts solution. • V. The washed cells are obtained at a number about 1×10^4 to be put into a chamber slide having eight individual sections for further culturing. • VI. […] The sliced tissues are washed with a normal saline solution for 3 times each time for 5 minutes. • (A4) Fluorescence microscopy observation 43: • I. The sliced tissues are fully dried for observation with a microscope. • II. […] A fluorescence image is captured with a digital camera device. • IV. An image of the cells is captured under a visible light as a reference to the fluorescence image.
(A) Fluorescence immunoassay 7: • (A1) Fluorescence immunoassay of colorectal cancer 71: • As modern studies show, colorectal cancer cells and tissues show a lot of GRP78. […] As a result, the anti-GRP78 peptide is able to detect expression of GRP78 in colorectal cancer cell. • (A2) Fluorescence immunoassay of colorectal cancer tissue 72: […]

Where no end group is shown, it is not given here.

T1 sequence (P20029 20-655): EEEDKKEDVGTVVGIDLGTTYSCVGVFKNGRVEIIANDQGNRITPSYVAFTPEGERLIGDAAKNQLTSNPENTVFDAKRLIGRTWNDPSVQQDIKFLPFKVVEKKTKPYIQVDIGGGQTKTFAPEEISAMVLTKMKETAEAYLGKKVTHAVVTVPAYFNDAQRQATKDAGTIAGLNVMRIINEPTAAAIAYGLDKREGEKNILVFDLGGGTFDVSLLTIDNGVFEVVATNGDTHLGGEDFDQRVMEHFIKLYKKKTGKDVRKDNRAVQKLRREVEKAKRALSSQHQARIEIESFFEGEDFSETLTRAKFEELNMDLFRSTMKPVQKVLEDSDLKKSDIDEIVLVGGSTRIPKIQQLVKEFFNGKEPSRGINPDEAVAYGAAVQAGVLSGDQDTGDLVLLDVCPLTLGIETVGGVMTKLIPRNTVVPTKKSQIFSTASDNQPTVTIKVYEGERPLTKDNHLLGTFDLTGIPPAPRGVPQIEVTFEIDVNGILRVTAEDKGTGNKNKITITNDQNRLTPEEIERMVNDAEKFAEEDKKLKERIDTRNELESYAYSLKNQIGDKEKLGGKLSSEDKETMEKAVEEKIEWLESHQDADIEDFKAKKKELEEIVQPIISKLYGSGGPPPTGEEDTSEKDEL

For the substance YIFPYIELC [anti-GRP78 peptide], the “fluorescence expression (detection of GRP78 expression in colorectal cancer cell)” value is listed as “obvious fluorescence expression”.

On to fluorescein isothiocyanate [pure FITC], for which the “fluorescence expression (detection of GRP78 expression in colorectal cancer cell)” value is given as “no fluorescence expression”.
